These are literature values, as cited in PMC4718210.

Read-outs that look alike come from different tables or passages of the source.

The target in data set [1] is RXFP2 receptor (Homo sapiens) (UniProt Q8WXD0).
Data set [2] addresses RXFP4 receptor (Homo sapiens) (UniProt Q8TDU9).
Data set [3] has the same target. The source holds these as a separate data set.
Data set [4] addresses TRH1 receptor (Homo sapiens) (UniProt P34981).
Data set [5] has as its target RXFP1 receptor (Homo sapiens) (UniProt Q9HBX9).
UniProt Q9HBX9, sequence (Q9HBX9 whole entry): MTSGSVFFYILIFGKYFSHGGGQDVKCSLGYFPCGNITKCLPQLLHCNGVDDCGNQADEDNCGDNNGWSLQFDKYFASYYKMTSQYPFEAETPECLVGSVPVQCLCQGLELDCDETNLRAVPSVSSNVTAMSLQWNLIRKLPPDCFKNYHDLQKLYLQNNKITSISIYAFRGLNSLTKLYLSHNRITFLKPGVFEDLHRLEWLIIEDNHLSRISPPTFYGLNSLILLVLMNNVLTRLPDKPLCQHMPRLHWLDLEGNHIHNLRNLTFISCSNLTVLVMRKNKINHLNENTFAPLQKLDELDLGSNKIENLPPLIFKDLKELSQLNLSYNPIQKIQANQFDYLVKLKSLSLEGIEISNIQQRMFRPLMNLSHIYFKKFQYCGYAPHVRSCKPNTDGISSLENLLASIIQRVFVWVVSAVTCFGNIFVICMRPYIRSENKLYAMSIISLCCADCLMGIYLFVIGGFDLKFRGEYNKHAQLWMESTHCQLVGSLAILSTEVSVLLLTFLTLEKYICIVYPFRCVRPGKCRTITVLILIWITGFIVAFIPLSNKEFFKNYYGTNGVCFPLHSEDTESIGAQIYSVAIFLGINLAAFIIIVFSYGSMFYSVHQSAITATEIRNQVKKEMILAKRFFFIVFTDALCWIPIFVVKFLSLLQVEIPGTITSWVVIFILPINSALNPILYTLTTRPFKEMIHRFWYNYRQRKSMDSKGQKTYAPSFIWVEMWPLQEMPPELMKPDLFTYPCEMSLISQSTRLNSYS

UniProt Q8TDU9, sequence (Q8TDU9 whole entry): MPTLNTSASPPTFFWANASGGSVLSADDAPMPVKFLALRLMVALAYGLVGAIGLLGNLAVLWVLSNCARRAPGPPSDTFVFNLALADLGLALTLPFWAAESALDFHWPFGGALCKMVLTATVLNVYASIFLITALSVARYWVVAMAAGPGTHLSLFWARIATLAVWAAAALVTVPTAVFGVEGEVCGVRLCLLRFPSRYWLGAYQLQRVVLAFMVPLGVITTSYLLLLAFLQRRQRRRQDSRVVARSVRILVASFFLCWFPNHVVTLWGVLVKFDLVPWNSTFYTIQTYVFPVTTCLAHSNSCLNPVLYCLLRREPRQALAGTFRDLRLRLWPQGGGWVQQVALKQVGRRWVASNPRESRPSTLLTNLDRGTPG
UniProt Q8WXD0, sequence (Q8WXD0 whole entry): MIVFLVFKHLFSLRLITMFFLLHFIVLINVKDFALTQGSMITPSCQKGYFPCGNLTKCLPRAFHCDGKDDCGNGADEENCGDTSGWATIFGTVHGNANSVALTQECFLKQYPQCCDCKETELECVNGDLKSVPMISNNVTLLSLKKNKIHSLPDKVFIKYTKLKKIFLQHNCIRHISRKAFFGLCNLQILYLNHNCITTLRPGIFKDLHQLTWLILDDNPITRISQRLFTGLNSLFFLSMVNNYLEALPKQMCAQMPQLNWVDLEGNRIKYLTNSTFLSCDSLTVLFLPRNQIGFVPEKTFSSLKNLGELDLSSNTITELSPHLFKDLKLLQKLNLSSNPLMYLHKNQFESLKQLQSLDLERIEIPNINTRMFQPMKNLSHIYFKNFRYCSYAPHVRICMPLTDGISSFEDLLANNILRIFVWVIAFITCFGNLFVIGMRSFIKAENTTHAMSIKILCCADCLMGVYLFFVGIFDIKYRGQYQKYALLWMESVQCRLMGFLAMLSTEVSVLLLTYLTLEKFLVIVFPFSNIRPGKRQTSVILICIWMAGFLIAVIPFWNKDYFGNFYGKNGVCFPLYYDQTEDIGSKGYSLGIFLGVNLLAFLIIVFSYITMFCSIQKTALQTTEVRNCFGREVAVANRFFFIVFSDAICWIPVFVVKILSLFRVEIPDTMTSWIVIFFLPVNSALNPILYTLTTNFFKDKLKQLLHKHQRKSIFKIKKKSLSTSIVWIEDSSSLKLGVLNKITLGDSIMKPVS
UniProt P34981, sequence (P34981 whole entry): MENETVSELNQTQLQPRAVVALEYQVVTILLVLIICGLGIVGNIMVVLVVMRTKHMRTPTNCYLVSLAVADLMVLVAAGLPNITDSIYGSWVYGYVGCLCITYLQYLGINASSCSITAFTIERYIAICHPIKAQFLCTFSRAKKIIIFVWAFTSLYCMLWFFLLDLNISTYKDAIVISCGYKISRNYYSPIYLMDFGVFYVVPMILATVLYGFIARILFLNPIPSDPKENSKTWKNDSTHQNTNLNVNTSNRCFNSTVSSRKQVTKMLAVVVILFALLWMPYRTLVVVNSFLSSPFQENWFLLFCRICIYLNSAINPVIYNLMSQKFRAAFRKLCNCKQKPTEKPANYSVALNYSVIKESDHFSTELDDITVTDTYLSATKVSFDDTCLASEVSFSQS

Usually Kd stands for the free concentration of one partner at which half of the binding sites on the other are occupied at equilibrium, for simple one-to-one binding. In the case of INSL3 (from UniProt P51460), in data set [1], the Kd is 1 nM. As for INSL5 (from UniProt Q9WUG6), the Kd in data set [2] was 5 nM.

Consider INSL5 (from UniProt Q9Y5Q6), for which, in data set [3], the Kd was 5.01 nM.

TRH (from UniProt P20396): in data set [4], the Kd was 13 nM.

Take relaxin (from UniProt P04090): the Kd in data set [5] was 0.5 nM.
